Data reported in the supplement of paper PMC9233669.
Variants at the floor of the assay were thinned out.

Experiments:
[1] = tested on: biotinyl-Leu-oxazolone; experiment: self-aminoacylation, catalytic enhancement (BLO) (fold over background); higher = more active; k-Seq, kA / k0A0; sequences stand for … in GGGAAUGGAUCCACAUCUACGAAUUC…UUCACUGCAGACUUGACGAAGCUG
Procedure, shortened: (§1)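 Each biotinyl-aminoacyl-oxazolone, at 2–1250 μM, was incubated with mutagenized RNA pools (0.43 μM) carrying a 21-nt variable region. The 50 μL reactions contained HEPES/NaCl/KCl/MgCl2/CaCl2 buffer with 5% acetonitrile at pH 6.9–7.0 and ran for 90 minutes at room temperature. After streptavidin capture, RNA was measured by qPCR in triplicate and by Illumina sequencing, and catalytic enhancement was calculated as median kA over the uncatalyzed rate from a pseudo-first-order fit of per-sequence fraction reacted.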

[2] = tested on: biotinyl-Phe-oxazolone; experiment: self-aminoacylation, catalytic enhancement (BFO) (fold over background); higher = more active; k-Seq, kA / k0A0; sequences stand for … in GGGAAUGGAUCCACAUCUACGAAUUC…UUCACUGCAGACUUGACGAAGCUG
Procedure, shortened: as §1

[3] = tested on: biotinyl-Met-oxazolone; experiment: self-aminoacylation, catalytic enhancement (BMO) (fold over background); higher = more active; k-Seq, kA / k0A0; sequences stand for … in GGGAAUGGAUCCACAUCUACGAAUUC…UUCACUGCAGACUUGACGAAGCUG
Procedure, shortened: as §1

[4] = tested on: biotinyl-Ile-oxazolone; experiment: self-aminoacylation, catalytic enhancement (BIO) (fold over background); higher = more active; k-Seq, kA / k0A0; sequences stand for … in GGGAAUGGAUCCACAUCUACGAAUUC…UUCACUGCAGACUUGACGAAGCUG
Procedure, shortened: as §1

[5] = tested on: biotinyl-Trp-oxazolone; experiment: self-aminoacylation, catalytic enhancement (BWO) (fold over background); higher = more active; k-Seq, kA / k0A0; sequences stand for … in GGGAAUGGAUCCACAUCUACGAAUUC…UUCACUGCAGACUUGACGAAGCUG
Procedure, shortened: as §1

[6] = tested on: biotinyl-Val-oxazolone; experiment: self-aminoacylation, catalytic enhancement (BVO) (fold over background); higher = more active; k-Seq, kA / k0A0; sequences stand for … in GGGAAUGGAUCCACAUCUACGAAUUC…UUCACUGCAGACUUGACGAAGCUG
Procedure, shortened: as §1

| Sequence | self-aminoacylation [1] | self-aminoacylation [2] | self-aminoacylation [3] | self-aminoacylation [4] | self-aminoacylation [5] | self-aminoacylation [6] |
| --- | --- | --- | --- | --- | --- | --- |
| CCCCACUUCACGCAAUCGGUC [Fam1B.1 aminoacylation ribozyme variant] | 2.44 | 7.33 | 2.31 | 2.06 | 4.55 | 2.61 |
| CCCCACUUCAGGCAAUCGGUC [Fam1B.1 aminoacylation ribozyme variant] | 2.63 | 9.29 | 2.35 | 2.56 | 5.21 | 2.64 |
| CCGCACUACAAGCAAUCGGUC [Fam1B.1 aminoacylation ribozyme variant] | 1.02 | 1.55 | 0.932 | 1.33 | 1.36 | 1.32 |
| CCGCACUUCAACCAAUCGGUC [Fam1B.1 aminoacylation ribozyme variant] | 3.41 | 148 | 2.05 | 2.09 | 67.5 | 2.38 |
| CCGCACUUCAAGCAAUCGGAC [Fam1B.1 aminoacylation ribozyme variant] | 0.812 | 1.31 | 1 | 1.07 | 1.86 | 1.12 |
| CCGCACUUCAAGCGAUCGGUC [Fam1B.1 aminoacylation ribozyme variant] | 1.3 | 2.22 | 1.53 | 1.34 | 4.81 | 1.8 |
| CCUAACUUCAAGCAAUCGGUC [Fam1B.1 aminoacylation ribozyme variant] | 1.54 | 46.5 | 1.02 | 1.18 | 19.9 | 1.01 |
| CCUCACUCCAAGCAAUCGGUC [Fam1B.1 aminoacylation ribozyme variant] | 0.915 | 5.18 | 0.767 | 1.03 | 2.39 | 0.947 |
| CCUCACUGCAAGCAAUCGGUC [Fam1B.1 aminoacylation ribozyme variant] | 1.24 | 1.44 | 0.832 | 1.26 | 1.17 | 1.41 |
| CCUCACUUCAAGGAAUCGGUC [Fam1B.1 aminoacylation ribozyme variant] | 0.936 | 6.28 | 0.946 | 0.76 | 4.27 | 0.869 |
| CCUCACUUCAUGCAAUCGGUC [Fam1B.1 aminoacylation ribozyme variant] | 0.735 | 1.17 | 0.642 | 0.734 | 0.804 | 0.773 |
| CCUCAUUUCAAGCAAUCGGUC [Fam1B.1 aminoacylation ribozyme variant] | 1.08 | 5.96 | 1.07 | 1.11 | 2.75 | 1.05 |
| CCUGACUUCAAGCAAUCGGUC [Fam1B.1 aminoacylation ribozyme variant] | 1.63 | 45.6 | 1.17 | 1.22 | 23.1 | 1.35 |
| CCUUACUUCAAGCAAUCGGUC [Fam1B.1 aminoacylation ribozyme variant] | 1.3 | 31.6 | 1.06 | 1.09 | 13 | 1.08 |
| CGACACUCCAAGCAAUCGGUC [Fam1B.1 aminoacylation ribozyme variant] | 0.842 | 0.914 | 0.665 | 1.11 | 1.19 | 1.11 |
| CGACACUUCAAGCAAUUGGUC [Fam1B.1 aminoacylation ribozyme variant] | 0.668 | 0.985 | 0.864 | 0.908 | 0.777 | 0.718 |
| CGACACUUCAAGCACUCGGUC [Fam1B.1 aminoacylation ribozyme variant] | 1.3 | 1.46 | 1.38 | 1.28 | 2 | 1.32 |
| CGACACUUCAAGCAGUCGGUC [Fam1B.1 aminoacylation ribozyme variant] | 1.23 | 1.04 | 1.64 | 1.25 | 1.74 | 0.99 |
| CGACACUUCAAGUAAUCGGUC [Fam1B.1 aminoacylation ribozyme variant] | 1.16 | 3.36 | 1.5 | 1.69 | 2.28 | 1.47 |
| CGACACUUCAAUCAAUCGGUC [Fam1B.1 aminoacylation ribozyme variant] | 1.15 | 14.7 | 0.958 | 1.04 | 7.59 | 1.05 |
| CGACACUUCAUGCAAUCGGUC [Fam1B.1 aminoacylation ribozyme variant] | 0.932 | 1.34 | 0.971 | 1.05 | 0.973 | 1.17 |
| CGACACUUCGAGCAAUCGGUC [Fam1B.1 aminoacylation ribozyme variant] | 1.18 | 1.37 | 1.28 | 1.24 | 0.998 | 1.4 |
| CGACUCUUCAAGCAAUCGGUC [Fam1B.1 aminoacylation ribozyme variant] | 0.86 | 3.23 | 1.02 | 1.22 | 3.07 | 1.32 |
| CGACUUCAAACAAUCCGUCUG [Fam1A.1 aminoacylation ribozyme variant] | 1.07 | 2.5 | 1.23 | 1.27 | 1.72 | 1.18 |
| CGACUUCAAACAAUCGCUCUG [Fam1A.1 aminoacylation ribozyme variant] | 1.42 | 3.61 | 1.36 | 1.42 | 3.07 | 1.24 |
| CGACUUCAAACAAUCGGCCUG [Fam1A.1 aminoacylation ribozyme variant] | 6.69 | 277 | 3.62 | 3.29 | 95.7 | 4.06 |
